From the DeepSol protein solubility set

Assay: soluble on expression in E. coli; label from the status in PepcDB or PDB records

| Sequence | soluble on expression in E. coli |
| --- | --- |
| MGSDKIHHHHHHMNKIAPAEIASMLNDWYLAIKKHEVEESSRLFEEVKPLLDDMEEDQEVLAYFSLLELRHKVLLHEARGQGFQHEEPSHMNATSDMLKYYFFLFEGMYEAYKNNYDIAIGLYKDAEQYLDNIPDPIEKAEFHLKVGKLYYKLGQNIVSLNHTRQAVKTFREETDYKKKLASALITMSGNFTEMSQFEEAEAYLDEAIRITSELEDHFFEAQLLHNFGLLHAQSGKSEEAVSKLEEALQNDEYARSAYYYHSAYLLIRELFKIKKKEQALSYYQDVKEKLTAEPNRICEAKIDILYAIYAEGGHAETFHLCKQHMDDLLSEKEYDSVRELSILAGERYRELELYKEAAHFFYEALQIEELIKRTEVI | not soluble |
| MSLDTDSGENNKDSSIPQGGVTVSPEVLAHRPLIEKYGKEYGIEDYVSYILAIMQVESGGTAEDVMQSSESLGLPPNSLSTEESIKQGVKYFSELLTSAEQQGVDIDSVIQSYNYGGGFLNYVRSHGKKYTYELAEQFSKEKSGGQKADYPNPIAIPVNGGWRYNYGNQFYVQLVSQYLTDTSPTEFDDETVQVIMDEALKYEGFPYVFGGASPTTSFDCSGLIQWVYDKAGISLPRVAQDQYDATQEISMEEAQAGDLIFFHSTYNAGTYVTHVAIYLEGNRFYHAGDPIGYGDLSSRYWQDHLIGARRVIHNEGHHHHHH | soluble |
| NRGIEFSGGRNYVVKFDQPVSSEAVRSALSSPLQEKVLVTSIGTEGTEVRISTNYKIQEESEETEAEITDKLYQSLKGFYTQQPTADQFLDNIISSQKVSPSMSSDITRGA | not soluble |
| GPGSMSERDKQRRSLERERMATVIFSYISHLMRTHEEETTVADEFIPSTKFFRTETLPNISLIHYVRRVVEHMNCSPEAYIFALAYIRRLFVAGFPLHTHSIYRLLLTAVVVATRVRDDFLFSKKYYSKVGGVTACDLNMMEIHFLADLLEYRVEVSPDEYRVLCNEITALLSSEVSKFDGNSSNPNNDTAAEGVASIQEPVGNSKPRWMSECCLYW | not soluble |
| MIQKTISETSPPPMFSDEEILTEDEIEEYLDNLKSKLPSFVIILLKNNLRGKRVTKKQLDKIVERITEVLSKGRRDDKTEELNKKLQTLEQKLDAIMKLTTMAVSTKTSEEIEKIKTNEKIEIENAPIKIKSEEKPEKPVEIEVSKKKETMDTGKKTETEEKVKEIEVPKPVEKTHEKVEETKTKGEIKKEVKKEVKLKKYELPKESPMGGSFMTPIEEEKEYRLNDIPEDAVSMTLVFKWLEFLISRGGMTYLPDILDYYNKIGWISNRVILKLLRFAKNMKITFDEEELRPRDKLSPSDHIVSLLYIEKLAGRPIDSEILEMLEIEIRRIKKWAIELQSI | not soluble |
| MGSDKIHHHHHHLGIYVNPTGRSFELAINSEIFVDKSGLIKETNKCINTLQRYMCVSRPRRFGKSMAMDMLSAYYGRKTDAENLFKGLKISHDESYDRHINKYDVLKINMQDFLSVTHSVDDMLKMLCEYITDDFSIECKDIIFRDKSNIVRVMQDVFMSTGRPFVILIDEWDCLFREFTQDKEAQKKYLDFLRGWLKDKDYIALAYMTGILPIKKYGSHSALNMFTEYSMTDMGALAEYFGFTDDEVRELCDRYDMDFEEARAWYNGYKLVSHSKYGVKKYAMYSPKSVVEAMLKHKFGTYWNQTETYEALKVYIQMNMDGLKDAVIKMLAGESEKINTGTFENDMTSFATKDDVLTLLVHLGYLTYDSETEEVSIPNREVSKEYLNAISTMDWDEVSKSIKASQKLLESLWNMNGAAVADGIDKAHNEISILRYNDENSLSCTINLAFYSAREYYSIVRELPTGKGFADVCFIPRVSHLDKPAVVIELKYDKNVDGAISQIKSRQYVEALKDYKGNLLLVGINYDKKTKEHQCVIEKWKL | not soluble |
| MSLATSAFCAISSAALADGGQTKLPLLELPGIEDRDYWVPGEVNVEGKLEAMQAVVGAKAVPFAGTQAEPIQIAMIYPSADTSDFWARNYIAMTKRLEELGIQFETTEFASRQIEHSLQSTYANQVVQDADLYDFVIFGPSELAIQADNIDKMAASEGFSTFVWAFHTPLKDLKNQPDGWFDFSSAAGALTMCDYMLGRLGNDVTMAMNRGIPGITDDQRSGDFKACVEEKGNWTTIYEHYGEYQREGGFEGTSLILQAYPEATVIHNANTAMAMGSVEAQISVGKEKEVFSTGWGGTGLELDAIRRGELDATPMRMGDDVGAATAEAIKAHLEGRSDELPFVFLGRITVAHDQMSAEEIDALEAEAFRFSGVGALEREGHHHHHH | soluble |
| MLGDRCAPIKASGVLIGDSVLVTDVEQARSLYSCGYYGQPLDVEKPRGADFEGPLRLSLIESLYLAEKGVLEVAKPDGSSVGVEDLRTAVRGNPRFSMLYNIYRDLRERGFVVRSGLKFGSDFAVYRLGPGIDHAPFIVHAYSPEDNIDPVEIVRAGRLSHSVRKKFVFAVTRGGDVSYLMIDWFRP | soluble |
| MAHHHHHHMVSDPSFCKKAPSSDLLGSNGRKVPPSFIAPPSSDVFLTSRRKTSFRNKSALTCLGKDVMSVSYGCGMRFRKAVRSGLSVFREAITLTDGGRHEGSHSRTSDSRPPQLSKRSMREIRRRIISPSYLEITSRTSTASSSTLRYIRLDFFKKTRRR | not soluble |
| MGSDKIHHHHHHMRKDDVVIVTCAITGAIHTPSMSPYLPVTPDQIVEEAVKAAEAGAGMVHIHARDPKDGRPTTDVEVFRYICREIKKQSDVVINVTTGGGGTLGIPVEERAKVVPALKPEIATFNMGSMNFAIHPLLKKYKEFKYDWEPEYLEMTRDIVFRNTFKDLEALSRIFKENDTKPELECYDIGQIYNTAFMFHEGYLEPPLRLQFIHGILGGIGTAVEDVLFMKQTADRLIGRENYTWSLVGAGRFQMPLGTLAVIMGGDVRVGLEDSLYIERGKLAKSNAEQVEKMVRIVKELGKRPATPDEVREILGLKGKERVNF | not soluble |
| MGWPVISGDYIVGDPKSPVAVVTLASDYQSLNLKNYAICGTCFTENFGIEKVIVNVLSNPRISCLVVCGQESDHFAGQSLLALAENGVSAFGGSKRIIGSEGVIPYLDDIPATAISRFLREIEVIDLVGTTDPAVIQQAIDSCSGKERGEAPELSMPEINEHSWKKYEPEVKKNIMSKIKK | not soluble |
| MVALAILRVEKLKSFGNVGGSEKHTARLQDTPNADTTKKNIRLIGMEDNSSLEDLVKTKIANTTKHKPRKDAVLCSEMFLSASPEYFRPDDPSRAGEWNHERMVLFAGASRQWLINNYGDKCVRAELHLDEATPHIHAYIVPINDKTKQLSHKEMFGGNGRVGSIKLSKLQDSYASALAPLGIERGVKGSKATHTKVKEYYQAVNSEPLTAVWSNKKLAPQPLESATNYVARIQNDDQFHAINHQLADRAFMQERLERAEQRARASEKERQRLEKEVRSLELKTQQLRDLELLDVAWELGLDYERERWRGHGHIINIDGSKFYDFSPDQQKGGGGAIDLVMHVNQCNFRQAVVWLHERFGEAGVERAAIAHVKNRAADIIQAEPRPQFTPPVENKANWPAVERYLTQQRGIPSDCLQMLQNLGLLYADDQQNAVFVMRDLEGQTSGAFLRGTRGENNSFKGYSKGTKRSDSWFYFGLGGQATDKVAHVLLCSSPIEAVSRAMLEYFVRGNVPPERTLYMAVDNINSLPVERLQNVPNILVTFGKDQSTNAAAQRVLELLPQSQQVLSKAADWNQQLLEYGWQLRRQQYQQQDDELSILEHHHHHH | not soluble |
| MDHLDDLVDLYEYRVEDLLQGRTPKGGKQALLRLRQLLIQSRLPGPLAKRFRQADARFRAQRRALAPEAQAPVELPAIAVPEEPEPPPPEASPLAALALKVWRLQVERDVKARLEALLAGRREELRLIHAFLDNFALYRETPGFKRDFNLSRFVPTRPIPSLSDTLVDLDDPKVAQALVVDFLETARELPKLLPLPPEETRTYVRRFLNRLLEWEGAYNLPPKPDLPALRRALEEARRLGAGEKEVAQLEERLRKAAQEARRRDLLLEEEKGRFRVALEKVVALLSLLPTPQGETPWPRVPEPGQEEEGLLTLRLAPGPVALGPLTLTLSHAGGTWYLGLEGEDHPLEDTLVLPWEDLEVWAVRENDLLHLRLEARSGLRLYELLAEGRLLAYLLHPGKDYAYLRLLRGLSTRLKGEFQAQAFGPALAEKYRKAPEEALQDFARKGLELTLKRLGQADPLPLLQEVGQALGLEAEAQTLGQALREYLGRRPPTRETLGGEVHFLALTPEPQALKLDQHVLSVRLKEDAVYLGQAGEVPRRLKDLLVYRLGERALVLAREGRRLAYTLLPLP | soluble |
| MSLKAYKTDGTHFRAITRQTLLGADEDERALGHQTRYFEIAPGGYSSLERHQHTHTVMILRGQGELILGDALHRIGRHDCIYIAPQTFHQFHASGDEPLGFLCIVDRERDRPREGHHHHHH | not soluble |
| DERLELMESVDVGQTPSNVVYEENKLELLHYDAEAAGIEVPDEEKEDVPILIVYALINRPYILDLQEERSVVRRLLEAGHDVYLIDWNEPSRLDQHLTLDDYVNRYMDNCVDVVRDRSGQDAINILGYCMGGTMSVMYTALHKEKVNTLGLMAAGLCFDHTGGVLEEWGSEEYYSPQDVVDTFGNVPADMLDIGFALMDPVENYVTKYIRFAENMENEGFVENFGRMEQWLGDGIDVAGEAYVQFLEDVYQDNKLYKNELELDGKHVDLDNIDMPVLQLMGEYDHLIPPEASKPFNDVIASDDTRTIEFSTGHIGLSVSSSTHADLWPEVAEWYSER | not soluble |
| MQTKKAFLYVFNTMSDWEYGYLIAELNSGRYFKKDLAPLKVITVGANKEMITTMGGLRIKPDISLDECTLESKDLLILPGGTTWSEEIHQPILERIGQALKIGTIVAAICGATDALANMGYLDTRKHTSNNLEYTKMVCPNYKGEKFYELGPAVSDANLVTASGIAPLEFAMEVLKKIDVFTLDALHSWYNLNKTHKPEYFFQLMNSINK | not soluble |
| MSNDFTQAQAPPWRYGFLNLMRRVDVQLCTVPAGNTWQPRMEKFRLGQTPALTFAPREIASVGWQEGRLHISLYSLVLWGPNGPLPLHYTELARNRTESRR | not soluble |
| MAHHHHHHSLSELVIESWRADDKALWEQKIIPAFEAANPGIKVKFNPVPNVNYTPTLWENLKAGKAGDLITCRPFDDSLALFKAGHLAEITEMAGMENFPSFAQAPWQTDSGAQTFCVPMASVIHGFFYNKKIFNELGLSVPQTREQFFTVLDKVKADGRYIPLSMSGSESWVASELGYQNIGPNYWKGEDGRLALINGQEHLDDSQYVKVFEELARWRAYLGEDGELRDYGTSNELFTSGKAALYVAGSWEIAPFTDKVDFGVMRPPVAKQGDGCFFTDHTDIGMGMNPASKNPQAAMAFLQWLTTPEFAELYTNSLPGFFSLSNHFFDVTNPAAREMMEWRDQCDSTIRVATQILSRGQPKLGDELAEVSQAVLVGKMTPTAAAERLEQGLKRWYAPHQTRKAKEQECQCVEPISPTTRLNTLPVVDIAPVVASDPVPPTEATILSEEG | not soluble |
| MNLDLQKVLPAEAFETEQNEGDYIGKDGLLYCGVCRTKKQTRLPASDFTGGREIIVPCICKCKVEENKRKEEEEKKRQEMQRLERLKASSLMDAKLKAARLDGYQVDGDNQKIYNLAGNYVKRFDEMYEKRQGLLFWGTVGTGKSYTAACIANELLNQMIPVVMTSFVKILQNIQGNPDEEERIMAGLNAAKLLIIDDLGAERSTDYALEKVYNIIDSRYLSGKPLILTTNMTLKDMQESEDIRYRRIYDRIFEMCFPVRFAGRSWREKAASKRFDAMKNLMEE | not soluble |
